Results from patent US20030108554A1 (published 2003).

B1: GIP130a (other)
chain: MRSRGSDTEGSAQKKFPRHTKGHSFQGPKNMKHRQQDKDSPSESDVILPCPKAEKPHSGNGHQAEDLSRDDLLFLLSILEGELQARDEVIGILKAEKMDLALLEAQYGFVTPKKVLEALQRDAFQAKSTPWQEDIYEKPMNELDKVVEKHKESYRRILGQLLVAEKSRRQTILELEEEKRKHKEYMEKSDEFICLLEQECERLKKLIDQEIKSQEEKEQEKEKRVTTLKEELTKLKSFALMVVDEQQRLTAQLTLQRQKIQELTTNAKETHTKLALAEARVQEEEQKATRLEKELQTQTTKFHQDQDTIMAKLTNEDSQNRQLQQKLAALSRQIDELEETNRSLRKAEEELQDIKEKISKGEYGNAGIMAEVEELRKRVLDMEGKDEELIKMEEQCRDLNKRLERETLQSKDFKLEVEKLSKRIMALEKLEDAFNKSKQECYSLKCNLEKERMTTKQLSQELESLKVRIKELEAIESRLEKTEFTLKEDLTKLKTLTVMFVDERKTMSEKLKKTEDKLQAASSQLQVEQNKVTTVTEKLIEETKRALKSKTDVEEKMYSVTKERDDLKNKLKAEEEKGNDLLSRVNMLKNRLQSLEAIEKDFLKNKLNQDSGKSTTALHQENNKIKELSQEVERLKLKLKDMKAIEDDLMKTEDEYETLERRYANERDKAQFLSKELEHVKMELAKYKLAEKTETSHEQWLFKRLQEEEAKSGHLSREVDALKEKIHEYMATEDLICHLQGDHSVLQKKLNQQENRNRDLGREIENLTKELERYRHFSKSLRPSLNGRRISDPQVFSKEVQTEAVDNEPPDYKSLIPLERAVINGQLYEESENQDEDPNDEGSVLSFKCSQSTPCPVNRKLWIPWMKSKEGHLQNGKMQTKPNANFVQPGDLVLSHTPGQPLHIKVTPDHVQNTATLEITSPTTESPHSYTSTAVIPNCGTPKQRITILQNASITPVKSKTSTEDLMNLEQGMSPITMATFARAQTPESCGSLTPERTMSPIQVLAVTGSASSPEQGRSPEPTEISAKHAIFRVSPDRQSSWQFQRSNSNSSSVITTEDNKIHIHLGSPYMQAVASPVRPASPSAPLQDNRTQGLINGALNKTTNKVTSSITITPTATPLPRQSQITVEPLLLPH
notes: Full length; tested as GAL4 domain fusion in yeast two-hybrid
B2: GIP130c (other)
chain: MRSRGSDTEGSAQKKFPRHTKGHSFQGPKNMKHRQQDKDSPSESDVILPCPKAEKPHSGNGHQAEDLSRDDLLFLLSILEGELQARDEVIGILKAEKMDLALLEAQYGFVTPKKVLEALQRDAFQAKSTPWQEDIYEKPMNELDKVVEKHKESYRRILGQLLVAEKSRRQTILELEEEKRKHKEYMEKSDEFICLLEQECERLKKLIDQEIKSQEEKEQEKEKRVTTLKEELTKLKSFALMVVDEQQRLTAQLTLQRQKIQELTTNAKETHTKLALAEARVQEEEQKATRLEKELQTQTTKFHQDQDTIMAKLTNEDSQNRQLQQKLAALSRQIDELEETNRSLRKAEEELQDIKEKISKGEYGNAGIMAEVEELRKRVLDMEGKDEELIKMEEQCRDLNKRLERETLQSKDFKLEVEKLSKRIMALEKLEDAFNKSKQECYSLKCNLEKERMTTKQLSQELESLKVRIKELEAIESRLEKTEFTLKEDLTKLKTLTVMFVDERKTMSEKLKKTEDKLQAASSQLQVEQNKVTTVTEKLIEETKRALKSKTDVEEKMYSVTKERDDLKNKLKAEEEKGNDLLSRVNMLKNRLQSLEAIEKDFLKNKLNQDSGKSTTALHQENNKIKELSQEVERLKLKLKDMKAIEDDLMKTEDEYETLERRYANERDKAQFLSKELEHVKMELAKYKLAEKTETSHEQWLFKRLQEEEAKSGHLSREVDALKEKIHEYMATEDLICHLQGDHSVLQKKLNQQENRNRDLGREIENLTKELERYRHFSKSLRPSLNGRRISDPQVFSKEVQTEAVDNEPPDYKSLIPLERAVINGQLYEESENQDEDPNDEGSVLSFKCSQSTPCPVNRKLWIPWMKSKEGHLQNGKMQTKPNANFVQPGDLVLSHTPGQPLHIKVTPDHVQNTATLEITSPTTESPHSYTSTAVIPNCGTPKQRITILQNASITPVKSKTSTEDLMNLEQGMSPITMATFARAQTPESCGSLTPERTMSPIQVLAVTGSASSPEQGRSPEPTEISAKHAIFRVSPDRQSSWQFQRSNSNSSSVITTEDNKIHIHLGSPYMQAVASPVRPASPSAPLQDNRTQGLINGALNKTTNKVTSSITITPTATPLPRQSQITVSNIYN
notes: as for B1

How the values were obtained:
Experiment in all cases: yeast two-hybrid
yeast two-hybrid = biological target: the molecule itself
GIP130c = biological target: B2
GIP130a = biological target: B1

binding result (GIP130c)	binding result (GIP130a)	Binder	binding result (yeast two-hybrid)
		B1	binds
binds	binds	GIP130b (other, Full length; tested as GAL4 domain fusion in yeast two-hybrid) MRSRGSDTEGSAQKKFPRHTKGHSFQGPKNMKHRQQDKDSPSESDVILPCPKAEKPHSGNGHQAEDLSRDDLLFLLSILEGELQARDEVIGILKAEKMDLALLEAQYGFVTPKKVLEALQRDAFQAKSTPWQEDIYEKPMNELDKVVEKHKESYRRILGQLLVAEKSHRQTILELEEEKRKHKEYMEKSDEFICLLEQECERLKKLIDQEIKSQEEKEQEKEKRVTTLKEELTKLKSFALMVVDEQQRLTAQLTLQRQKIQELTTNAKETHTKLALAEARVQEEEQKATRLEKELQTQTTKFHQDQDTIMAKLTNEDSQNRQLQQKLAALSRQIDELEETNRSLRKAEEELQDIKEKISKGEYGNAGIMAEVEELRKRVLDMEGKDEELIKMEEQCRDLNKRLERETLQSKDFKLEVEKLSKRIMALEKLEDAFNKSKQECYSLKCNLEKERMTTKQLSQELESLKVRIKELEAIESRLEKTEFTLKEDLTKLKTLTVMFVDERKTMSEKLKKTEDKLQAASSQLQVEQNKVTTVTEKLIEETKRALKSKTDVEEKMYSVTKERDDLKNKLKAEEEKGNDLLSRVNMLKNRLQSLEAIEKDFLKNKLNQDSGKSTTALHQENNKIKELSQEVERLKLKLKDMKAIEDDLMKTEDEYETLERRYANERDKAQFLSKELEHVKMELAKYKLAEKTETSHEQWLFKRLQEEEAKSGHLSREVDALKEKIHEYMATEDLICHLQGDHSVLQKKLNQQENRNRDLGREIENLTKELERYRHFSKSLRPSLNGRRISDPQVFSKEVQTEAVDNEPPDYKSLIPLERAVINGQLYEESENQDEDPNDEGSVLSFKCSQSTPCPVNRKLWIPWMKSKEGHLQNGKMQTKPNANFVQPGDLVLSHTPGQPLHIKVTPDHVQNTATLEITSPTTESPHSYTSTAVIPNCGTPKQRITILQNASITPVKSKTSTEDLMNLEQGMSPITMATFARAQTPESCGSLTPERTMSPIQVLAVTGSASSPEQGRSPEPTEISAKHAIFRVSPDRQSSWQFQRSNSNSSSVITTEDNKIHIHLGSPYMQAVASPVRPASPSAPLQDNRTQGLINGALNKTTNKVTSSITITPTATPLPRQSQITVSNIYN	binds
	binds	B2	binds
